Experimental data published in article PMC12338438.

Experiments:
Experiment in all cases: fluorescence dot blot
[1] = target: T1, PBP2a (penicillin binding protein 2a), recombinant soluble (Staphylococcus aureus (MRSA)?, UniProt Q7DHH4 25-668)
T1 sequence: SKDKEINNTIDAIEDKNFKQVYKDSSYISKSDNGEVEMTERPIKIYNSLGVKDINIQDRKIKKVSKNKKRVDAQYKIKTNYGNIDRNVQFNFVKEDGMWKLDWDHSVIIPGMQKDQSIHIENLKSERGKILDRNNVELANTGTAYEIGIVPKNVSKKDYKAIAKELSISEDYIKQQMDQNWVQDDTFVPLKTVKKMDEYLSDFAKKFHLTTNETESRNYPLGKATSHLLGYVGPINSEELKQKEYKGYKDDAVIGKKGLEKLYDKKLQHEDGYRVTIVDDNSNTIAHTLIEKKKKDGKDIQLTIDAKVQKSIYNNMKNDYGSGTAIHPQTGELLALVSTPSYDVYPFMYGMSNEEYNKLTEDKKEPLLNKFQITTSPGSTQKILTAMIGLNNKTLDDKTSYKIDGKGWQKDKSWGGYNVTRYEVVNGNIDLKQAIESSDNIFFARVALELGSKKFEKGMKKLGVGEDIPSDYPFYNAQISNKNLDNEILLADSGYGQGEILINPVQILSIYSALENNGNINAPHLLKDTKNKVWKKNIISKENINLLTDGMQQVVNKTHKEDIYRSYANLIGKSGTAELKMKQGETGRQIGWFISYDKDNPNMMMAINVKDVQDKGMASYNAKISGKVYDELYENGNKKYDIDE

myeloperoxidase (MPO) = myeloperoxidase (MPO) (UniProt P05164;P05164 165-273;279-745)
thrombin = thrombin (UniProt P00734;P00734 328-363;364-622)

Chain of myeloperoxidase (MPO) (P05164 165-273, chain 1 of 2): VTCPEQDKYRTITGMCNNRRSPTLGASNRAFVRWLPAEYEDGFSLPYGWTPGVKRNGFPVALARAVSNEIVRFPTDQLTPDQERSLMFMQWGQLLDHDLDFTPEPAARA
Chain of myeloperoxidase (MPO) (P05164 279-745, chain 2 of 2): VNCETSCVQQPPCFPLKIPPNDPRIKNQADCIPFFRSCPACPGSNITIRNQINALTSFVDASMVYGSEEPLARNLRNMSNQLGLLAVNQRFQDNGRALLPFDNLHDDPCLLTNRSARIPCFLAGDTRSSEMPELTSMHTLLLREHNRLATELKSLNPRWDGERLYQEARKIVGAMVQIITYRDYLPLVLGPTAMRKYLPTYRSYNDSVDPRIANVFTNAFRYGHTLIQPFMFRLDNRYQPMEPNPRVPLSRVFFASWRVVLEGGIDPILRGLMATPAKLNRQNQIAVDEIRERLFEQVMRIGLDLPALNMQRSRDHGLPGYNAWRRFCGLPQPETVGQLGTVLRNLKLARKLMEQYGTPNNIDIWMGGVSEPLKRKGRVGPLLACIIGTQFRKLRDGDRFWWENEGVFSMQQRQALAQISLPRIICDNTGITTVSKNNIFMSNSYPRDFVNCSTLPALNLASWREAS

B1: PBP2a-Apt1T1 (ssDNA)
DNA: ATGCCATCCTACCAACCCGGTGTTCGTGTGGGTGTAGAGGGGGCGAAGGATGGC
Question: How did the Kd [1] turn out when B1 was run?
Answer: The Kd was 58 ± 11 nM.

Question: Does B1 bind (myeloperoxidase (MPO))?
Answer: Result: no binding

Question: Does B1 bind (thrombin)?
Answer: Result: no binding
